Reference: publication PMC9135737

Molecular target: Roseovarius indicus B108 MmtN (the sample called MmtN in the DLS analysis) (Roseovarius indicus B108)
Experiment: dynamic light scattering; DynaPro NanoStar, 4 °C, 2 μl of 2.5 mg ml^-1 protein in 10 mM Tris-HCl, 100 mM NaCl, pH 8.0

Work on “Roseovarius indicus B108 MmtN (the sample called MmtN in the DLS analysis) (enzyme)” yielded a stoichiometry N of 3.
